This passage reports stoichiometry N results from publication doi:10.1101/2024.02.25.581951.

The target of this assay is T1, IRF3 (mouse (endogenous in mouse ESCs)), P70671.
T1 chain: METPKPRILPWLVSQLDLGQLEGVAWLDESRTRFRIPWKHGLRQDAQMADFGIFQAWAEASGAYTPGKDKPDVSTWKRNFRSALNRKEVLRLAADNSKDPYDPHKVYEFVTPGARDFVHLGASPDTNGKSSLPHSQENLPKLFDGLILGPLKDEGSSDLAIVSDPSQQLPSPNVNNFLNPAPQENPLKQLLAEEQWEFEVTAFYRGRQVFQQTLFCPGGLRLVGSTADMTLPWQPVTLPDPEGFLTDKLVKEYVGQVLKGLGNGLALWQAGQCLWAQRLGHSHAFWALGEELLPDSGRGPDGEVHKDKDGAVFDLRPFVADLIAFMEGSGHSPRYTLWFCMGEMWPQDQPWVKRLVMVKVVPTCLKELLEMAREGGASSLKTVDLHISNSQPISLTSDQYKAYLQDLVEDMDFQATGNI
Briefly: native gel or EMSA. Conditions: remark: other sources report otherwise. (In general: A gel shift assay detects complexes by their altered migration in electrophoresis.)

B1: IRF3, P70671 1-419 (natural protein)
chain: T1 chain
As usually defined, the stoichiometry N is a count of units in the complex or per binding partner. In turn, B1 returned a stoichiometry N of 2.
